The results in this text go back to article PMC3949604 (Biochemical pharmacology, 2014).

This assay has as its target baculovirus expressed human Arnt (aryl hydrocarbon receptor nuclear translocator) (human, UniProt P27540 1-789). Put plainly: co-IP.

A value given as a limit tells only on which side of the number the result lay.

baculovirus expressed human Arnt (aryl hydrocarbon receptor nuclear translocator), sequence (P27540 whole entry): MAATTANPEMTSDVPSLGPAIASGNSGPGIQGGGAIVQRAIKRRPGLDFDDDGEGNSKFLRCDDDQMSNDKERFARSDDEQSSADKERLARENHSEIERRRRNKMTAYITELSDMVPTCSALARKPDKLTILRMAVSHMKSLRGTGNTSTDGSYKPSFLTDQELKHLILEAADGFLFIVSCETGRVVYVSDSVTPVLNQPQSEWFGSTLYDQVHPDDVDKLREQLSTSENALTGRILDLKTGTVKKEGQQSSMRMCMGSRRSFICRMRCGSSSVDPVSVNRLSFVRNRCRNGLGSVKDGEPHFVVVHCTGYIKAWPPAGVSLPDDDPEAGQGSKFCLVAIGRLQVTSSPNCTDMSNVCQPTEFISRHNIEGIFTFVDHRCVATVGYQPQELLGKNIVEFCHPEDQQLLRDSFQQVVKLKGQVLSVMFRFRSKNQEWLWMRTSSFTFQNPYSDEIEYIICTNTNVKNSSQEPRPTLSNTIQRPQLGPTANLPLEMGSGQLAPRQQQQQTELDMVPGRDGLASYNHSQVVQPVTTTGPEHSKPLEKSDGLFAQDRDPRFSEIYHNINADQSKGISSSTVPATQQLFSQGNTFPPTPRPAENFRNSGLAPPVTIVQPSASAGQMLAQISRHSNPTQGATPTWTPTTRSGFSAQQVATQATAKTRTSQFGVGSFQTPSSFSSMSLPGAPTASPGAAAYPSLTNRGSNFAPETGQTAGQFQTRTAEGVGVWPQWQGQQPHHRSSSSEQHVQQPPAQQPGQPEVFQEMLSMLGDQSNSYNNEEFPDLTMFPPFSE

B1: thioredoxin fusion of D1 (human AhR aa 84-295) (domain or fragment, UniProt P35869 84-295, looked up)
chain: DVALKSSPTERNGGQDNCRAANFREGLNLQEGEFLLQALNGFVLVVTTDALVFYASSTIQDYLGFQQSDVIHQSVYELIHTEDRAEFQRQLHWALNPSQCTESGQGIEEATGLPQTVVCYNPDQIPPENSPLMERCFICRLRCLLDNSSGFLAMNFQGKLKYLHGQKKKGKDGSILPPQLALFAIATPLQPPSILEIRTKNFIFRTKHKLDF
For the molecule B1, the “percent of input co-immunoprecipitated” value is ~10 % input.

B2: thioredoxin fusion of D2 (human AhR aa 84-192) (domain or fragment)
chain: not shown
In the case of B2, the “percent of input co-immunoprecipitated” value was ~10 % input.

B3: thioredoxin fusion of CΔ553 (human AhR aa 1-295) (domain or fragment, UniProt P35869 1-295, looked up)
chain: MNSSSANITYASRKRRKPVQKTVKPIPAEGIKSNPSKRHRDRLNTELDRLASLLPFPQDVINKLDKLSVLRLSVSYLRAKSFFDVALKSSPTERNGGQDNCRAANFREGLNLQEGEFLLQALNGFVLVVTTDALVFYASSTIQDYLGFQQSDVIHQSVYELIHTEDRAEFQRQLHWALNPSQCTESGQGIEEATGLPQTVVCYNPDQIPPENSPLMERCFICRLRCLLDNSSGFLAMNFQGKLKYLHGQKKKGKDGSILPPQLALFAIATPLQPPSILEIRTKNFIFRTKHKLDF
In the case of B3, the “percent of input co-immunoprecipitated” value is > 10 % input.

B4: thioredoxin fusion of D3 (human AhR aa 191-295) (domain or fragment, UniProt P35869 191-295, looked up)
chain: EEATGLPQTVVCYNPDQIPPENSPLMERCFICRLRCLLDNSSGFLAMNFQGKLKYLHGQKKKGKDGSILPPQLALFAIATPLQPPSILEIRTKNFIFRTKHKLDF
As to B4, the “percent of input co-immunoprecipitated” value was ~10 % input.
